Experimental data taken from patent publication US20190119357A1, “MESSENGER RIBONUCLEIC ACIDS FOR THE PRODUCTION OF INTRACELLULAR BINDING POLYPEPTIDES AND METHODS OF USE THEREOF” (ModernaTX, Inc., priority 2015, published 2019).
Entries after “also recorded” stand apart in the source; their conditions may differ.

Key:
BCL-2 = molecular target: T1, BCL-2 (Homo sapiens, UniProt P10415); test: Co-immunoprecipitation after mRNA transfection; type: binding; details: within two hours after mRNA transfection
T1 construct: endogenous in cells; host or cells: cells transfected with SQT-BH3 mRNA (HeLa by context)

HepG2 cells = test: Cell death by YOYO3 with MC3 LNPs; type: cell-based
primary hepatocytes = test: Apoptosis induction by MC3 LNP-formulated mRNAs in primary hepatocytes cultured in vitro; type: cell-based
MCL-1 = molecular target: T2, MCL-1 (Homo sapiens, UniProt Q07820); test: Co-immunoprecipitation in lysates of transfected HeLa cells; type: binding; details: lysates of HeLa cells transfected with mRNAs
T2 construct: performed in lysates of HeLa cells transfected with mRNAs encoding SQT-BH3 constructs; endogenous in cells; host or cells: HeLa

HeLa cells [1] = test: Efficiency of cell killing at low mRNA dose; type: cell-based; details: approximately 0.78 ng mRNA
[2] = tested on: human hepatocellular carcinoma (Hep G2) cells; test: Cell death and morphology after mRNA transfection; type: cell-based
Source text: A representative graph of the apoptotic ability of the SQT-BH3 constructs is shown in FIG. 2, showing the cell killing capacity of the SQT-BH3 constructs in Hep G2 cells.

Hep3B cells [3] = test: Cell death by YOYO-3 with MC3-formulated LNPs; type: cell-based
Procedure: The efficacy of mRNAs encoding SQT-BH3 constructs in inducing cell death was tested both in hepatocellular carcinoma cell lines as well as in primary hepatocytes using lipid nanoparticle (LNP)-formulated constructs. Hep3B cells were treated with varying doses (0.78 ng to 50 ng) of MC3-formulated LNPs in the presence of YOYO-3 (Life Technologies), a DNA dye that is taken up preferentially by dead cells that is used to measure the extent of cell death. MC3 lipid nanoparticles included MC3 50%, DSPC 10%, Cholesterol 38.5%, PEG-DMG 1.5%, N:P ˜5.5.

HeLa cells [4] = test: PARP-1 cleavage by SDS-PAGE and Western blotting after transfection of mRNAs encoding SQT-BH3 constructs; type: cell-based; details: from anti-FLAG and anti-GFP Western blotting
Source text: The cleavage of PARP-1 was detected by the appearance of a faster-migrating band and concomitant loss of the full-length band by SDS-PAGE and Western blotting. Western blotting with anti-actin antibodies served as a loading control.

[5] = tested on: human melanoma cells (A375); test: Cell death after mRNA transfection; type: cell-based
BCL-XL = molecular target: T3, BCL-XL (Homo sapiens, UniProt Q07817); test: Co-immunoprecipitation after mRNA transfection; type: binding; details: within two hours after mRNA transfection
T3 construct: endogenous in cells; host or cells: cells transfected with SQT-BH3 mRNA (HeLa by context)

Hep3B cells [6] = test: Efficiency of cell killing at low mRNA dose and dose-response; type: cell-based
Hep3B cells [7] = test: Co-transfection of SQT-Bim-BH3 in MC3 LNPs with Bcl-2-like trap mRNA constructs, YOYO-3; type: cell-based; details: 272 picomolar SQT-Bim-BH3 in MC3 LNPs, increasing amounts of trap mRNA, 12 hour time point
Source text: YOYO-3 viability dye was used to assess apoptosis of cells.

Hep3B cells [8] = test: Effect of insertion site position on apoptotic potency, YOYO3; type: cell-based; details: Hep3B cells transfected with constructs
Procedure: BH3 domain was inserted into either the N-terminal insertion site, the loop 1 insertion site or the loop 2 insertion site of the SQT scaffold polypeptide. The mRNA sequences of these SQT-BID-BH3 constructs, with a FLAG epitope tag, are shown in SEQ ID NOs: 43-45, respectively. Corresponding mRNA sequences without the FLAG tag are shown in SEQ ID NOs: 46-48. Hep3B cells were transfected with the constructs and the apoptotic ability of the constructs was assessed using YOYO3 to determine cell death, as described above.

Hep3B cells [9] = test: Anti-MCL1 mmRNA construct combined with SQT-PUMA-BH3, YOYO-3; type: cell-based; details: 50 ng anti-MCL1 mRNA, 1.6 ng SQT-PUMA-BH3, L2K, 48 hours
Procedure: The anti-MCL1 mmRNA construct was tested for synergistic killing when combined with SQT-PUMA-BH3 in Hep3B cells. 20,000 Hep3B cells were seeded per well in 96-well plates. Each well was transfected with (a) 1.6 ng SQT-empty (“SQT-dummy”) or SQT-PUMA-BH3; and (b) 50 ng or 12.5 ng anti-MCL1 mRNA. Transfections of mRNA were done with Lipofectamine 2000 (L2K). After 48 hours, apoptosis measurements performed using YOYO-3 viability dye in an Incucyte instrument.

T1 sequence (P10415 whole entry): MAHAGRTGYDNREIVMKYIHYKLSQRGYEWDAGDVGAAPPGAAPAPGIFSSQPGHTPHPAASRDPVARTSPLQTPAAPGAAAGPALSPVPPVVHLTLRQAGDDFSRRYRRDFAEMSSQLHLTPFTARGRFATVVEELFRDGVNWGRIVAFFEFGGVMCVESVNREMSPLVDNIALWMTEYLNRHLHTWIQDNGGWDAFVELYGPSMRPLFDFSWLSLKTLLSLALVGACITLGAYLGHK
T2 sequence (Q07820 whole entry): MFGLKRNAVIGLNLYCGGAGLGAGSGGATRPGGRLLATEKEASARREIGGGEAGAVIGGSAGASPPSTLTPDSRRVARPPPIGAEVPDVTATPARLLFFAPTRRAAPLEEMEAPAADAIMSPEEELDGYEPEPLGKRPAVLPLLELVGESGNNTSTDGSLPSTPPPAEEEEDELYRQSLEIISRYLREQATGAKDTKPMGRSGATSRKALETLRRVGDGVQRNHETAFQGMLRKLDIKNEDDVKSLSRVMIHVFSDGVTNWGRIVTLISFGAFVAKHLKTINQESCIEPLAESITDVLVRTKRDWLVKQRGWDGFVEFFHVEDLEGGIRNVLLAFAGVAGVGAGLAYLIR
T3 sequence (Q07817 whole entry): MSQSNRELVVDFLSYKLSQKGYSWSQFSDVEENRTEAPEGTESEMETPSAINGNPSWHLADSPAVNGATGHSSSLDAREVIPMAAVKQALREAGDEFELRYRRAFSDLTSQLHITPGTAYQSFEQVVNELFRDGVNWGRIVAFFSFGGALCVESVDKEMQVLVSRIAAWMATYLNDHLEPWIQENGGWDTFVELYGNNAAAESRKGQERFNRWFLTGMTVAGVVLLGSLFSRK

B1: SQT-Bim-BH3: mRNA (SEQ ID NO: 50, FLAG) encoding SQT scaffold with Bim BH3 domain in N-terminus (nucleic acid)
chain: ATGATCCCAAGAGACATGCGCCCCGAAATTTGGATCGCCCAGGAGCTCAGACGCATCGGAGATGAATTCAACGCATACTACGCTCGGCGGGGACTCTCAGAAGCGAAGCCTGCCACCCCCGAAATCCAGGAAATCGTCGACAAGGTCAAGCCGCAGCTTGAGGAAAAGACCAACGAGACTTACGGAAAACTGGAGGCCGTGCAGTATAAGACCCAAGTGTTGGCCTCCACCAACTACTACATTAAGGTCCGCGCCGGCGATAACAAGTACATGCACCTGAAGGTGTTCAATGGTCCTCCGGGACAGAACGCGGACAGGGTGCTGACTGGCTACCAAGTGGACAAGAACAAGGACGACGAGCTGACGGGCTTCGACTACAAGGATGATGATGACAAA
modifications: FLAG tag; Synthetic SQT-BIM-BH3 mRNA sequence with FLAG epitope tag
B1 was tested, and the “interaction with BCL-2 by co-immunoprecipitation” value (BCL-2) was “to a lesser extent”, the “cell death (YOYO3 staining)” value (HepG2 cells) was “lead to cell death; also recorded: kills HepG2 cells” and the “efficacy and timing of cell death, comparison” value (HepG2 cells) was “induced cell death with an increase in both efficacy and timing compared to SQT-PUMA-BH3”. For the same molecule, the PARP-1 cleavage (primary hepatocytes; LNPs) was “also induced PARP-1 cleavage in primary hepatocytes”, the “apoptosis (YOYO-3 dye uptake and fluorescence) as a function of time” value (primary hepatocytes; MC3-LNP-formulated) was “induce apoptosis” and the “co-immunoprecipitation of MCL-1” value (MCL-1) was “able to co-immunoprecipitate”. For the same molecule, the “efficiency of cell killing” value (HeLa cells [1]) was “killed both HeLa cells and Hep3B cells with greater efficiency than SQT-PUMA-BH3”, the cell death [2] was “caused rapid cell death almost immediately following transfection; also recorded: underwent cell death almost immediately following transfection” and the cell morphology [2] was “rounded-up cell morphology that is characteristic of apoptotic cells”. The “cell killing (YOYO-3)” value (Hep3B cells [3]; four-fold lower concentration) was “induced cell killing in Hep3B cells more efficiently than SQT-PUMA-BH3”, the “apoptosis and cell death (YOYO-3)” value (Hep3B cells [3]; relatively high concentration) was “both induced apoptosis and cell death; also recorded: kills Hep3B cells at higher concentrations” and the “cell death of transfected cells” value (HeLa cells [4]) was “underwent cell death”. The cell death [5] was “caused rapid cell death almost immediately following transfection”, the “interaction with BCL-XL by co-immunoprecipitation” value (BCL-XL) was “able interact” and the “efficiency of cell killing” value (Hep3B cells [6]; Hep3B cells, approximately 0.78 ng mRNA) was “killed both HeLa cells and Hep3B cells with greater efficiency than SQT-PUMA-BH3”. The “cell killing, dose-response curve” value (Hep3B cells [6]; Hep3B, 12 hours after transfection, L2K lipid nanoparticles) was “more efficient cell killing by SQT-Bim-BH3 at low doses”.

B2: Bcl-2 (D34A) del.C32: Bcl-2-like trap mRNA, SEQ ID NO: 82, FLAG tag (nucleic acid)
chain: ATGGCACACGCTGGTAGGACAGGCTACGACAACCGTGAGATTGTGATGAAGTATATTCACTATAAGCTGTCTCAAAGAGGCTACGAATGGGATGCGGGGGCCGTCGGGGCTGCCCCACCTGGTGCCGCCCCGGCTCCTGGGATTTTCTCTTCCCAGCCGGGACATACCCCTCATCCTGCCGCTTCTAGGGACCCTGTGGCAAGAACATCCCCTCTACAGACCCCTGCCGCCCCAGGTGCGGCTGCTGGCCCAGCGTTAAGTCCCGTTCCACCAGTCGTGCACCTTACCCTTAGGCAAGCGGGCGACGATTTCTCTAGGCGATACCGGAGGGACTTTGCCGAAATGTCATCACAGCTCCATCTTACTCCATTTACTGCCCGTGGCAGATTCGCCACCGTAGTGGAAGAACTCTTTCGAGACGGCGTAAATTGGGGGAGGATCGTGGCATTTTTCGAATTTGGAGGGGTTATGTGTGTGGAGAGCGTGAATCGGGAAATGTCTCCTCTGGTTGACAATATTGCCTTGTGGATGACCGAATATCTTAACAGGCACCTCCACACCTGGATTCAAGATAATGGTGGATGGGATGCGTTTGTGGAACTTTATGGGCCTTCAATGCGTGACTATAAGGACGACGACGACAAA
modifications: FLAG tag; Synthetic Bcl-2(D34A)del.C32 BH3 mRNA sequence with FLAG epitope tag
In the case of B2, the “protection from apoptosis by SQT-Bim-BH3 (YOYO-3)” value (Hep3B cells [7]) is reported as “all of the tested trap constructs except Bcl-2 (D34A) del.C32 were able to protect”.

B3: SQT(nt)BID-BH3: mRNA (SEQ ID NO: 43) encoding SQT with a single BID BH3 domain in the N-terminal insertion site (nucleic acid, listed as Homo sapiens)
chain: ATGATACCCAGACAAGAGGACATCATTCGTAACATCGCGCGACACCTGGCCCAGGTGGGGGACTCCATGGATCGATCAATCCCCCCTGGCTTATCCGAAGCTAAGCCAGCCACCCCTGAGATCCAAGAAATCGTCGACAAGGTCAAGCCCCAACTTGAAGAGAAAACTAATGAAACTTATGGTAAGCTCGAAGCCGTGCAATACAAGACTCAGGTCCTGGCGTCTACAAATTATTACATCAAGGTGAGGGCCGGGGACAATAAGTATATGCATCTGAAAGTCTTCAATGGCCCCCCTGGACAAAACGCAGATCGGGTGCTCACAGGATACCAGGTCGATAAAAATAAAGATGACGAACTTACTGGGTTTGATTATAAAGATGATGATGACAAG
modifications: (1)..(393) SQT(nt)BID-BH3 mRNA sequence with FLAG epitope tag
In the case of B3, the “apoptotic potency (YOYO3 cell death)” value (Hep3B cells [8]) is reported as “more potent than the SQT-BID-BH3 constructs with the BH3 domain inserted at either the loop 1 insertion site or the loop 2 insertion site”.

B4: SQT.(nt)Mcl1.BH3.cv5: anti-MCL1 mmRNA construct, ORF amino acid SEQ ID NO: 108, nucleotide SEQ ID NO: 112, v5 tag (nucleic acid)
chain: ATGATCCCTAGGAAGGCCCTGGAGACCCTGAGGAGAGTGGGCGACGGAGTGCAGAGGAACCACGAGACCGCCTTCGGCCTGAGCGAGGCAAAGCCAGCAACACCCGAGATCCAGGAGATCGTGGATAAGGTGAAGCCCCAGCTGGAGGAGAAGACCAATGAGACATACGGCAAGCTGGAGGCCGTGCAGTATAAGACCCAGGTGCTGGCCTCCACAAACTACTATATCAAGGTGCGGGCCGGCGACAATAAGTACATGCACCTGAAGGTGTTCAACGGACCACCTGGACAGAATGCAGACAGGGTGCTGACCGGCTATCAGGTGGATAAGAACAAGGACGATGAGCTGACAGGCTTTGGCAAGCCAATCCCCAATCCTCTGCTGGGCCTGGATTCTACA
modifications: V5 tag; Synthetic SQT.(nt)Mcl1.BH3.cv5
With B4 the “apoptosis (YOYO-3) in combination with SQT-PUMA-BH3” value (Hep3B cells [9]; listed as anti-MCL1 construct) was “synergistic anti-apoptotic effect in combination with SQT-PUMA-BH3” and the “apoptosis (YOYO-3) in combination with SQT-PUMA-BH3” value (Hep3B cells [9]; listed as anti-MCL1 mRNA construct) was “synergistic pro-apoptotic effects”.
